Measurements published in the DeepSol protein solubility set.

test: soluble on expression in E. coli; label from the status in PepcDB or PDB records

Soluble on expression in E. coli, not soluble:
MGSDKIHHHHHHMHTESIKTPTDNHAKGAVSSTVSPTTYTPDLPSDEEDYSTLINMLPPVAPSSTPTEDESTESDNMPTDALHDFSQSLETQYGIAPGVNIQQQRQQRAEANGLTFACVGRQPVDDIWQIYPARKHKLEAYSLALDIAESVGLERYVEHVVNTPVDYAYRMLPLENAVENEMVKMCYDLLMLLQTVDSTSYPSVSITLSFLLDAEKIDDVTLVKLFRLIRLVRYIRQGAHHDNV
MGSDKIHHHHHHMHYEHSRKGNHMIKINHLTITQNKDLRDLVSDLTMTIQDGEKVAIIGEEGNGKSTLLKILMGEALSDFTIKGNIQSDYQSLAYIPQKVPEDLKKKTLHDYFFLDSIDLDYSILYRLAEELHFDSNRFASDQEIGNLSGGEALKIQLIHELAKPFEILFLDEPSNDLDLETVDWLKGQIQKTRQTVIFISHDEDFLSETADTIVHLRLVKHRKEAETLVEHLDYDSYSEQRKANFAKQSQQAANNQRAYDKTMEKHRRVKQNVETALRATKDSTAGRLLAKKMKTVLSQEKRYEKAAQSMTQKPLEEEQIQLFFSDIQPLPASKVLVQLEKENLSIDDRVLVQKLQLTVRGQEKIGIIGPNGVGKSTLLAKLQRLLNDKREISLGFMPQDYHKKLQLDLSPIAYLSKTGEKEELQKIQSHLASLNFSYPEMQHQIRSLSGGQQGKLLLLDLVLRKPNFLLLDEPTRNFSPTSQPQIRKLFATYPGGLITVSHDRRFLKEVCSIIYRMTEHGLKLVNLEDL
MGSDKIHHHHHHMIDLHCHILPNIDDGAKSIDEAIALVALAAEQGVSRMVATPHIHLGIYDNNLQSINAAYHLLCDALALTNIDIQLRAAAEVRVSPEIMLFIEQQQLPFLGRYQQKDVLLLELPSSHIPPGTDKLISWLLAKNVLPMIAHPERNRELQSHPERITPFVRAGCLFQLTAASLIGDMGEAPKQLSEYFIKQKLYSIIGSDCHSLNRRPPKLLQAQHAVTALTDQEYAFALTTSMPGSISNVLFAESSD
MGSDKIHHHHHHMIDLKQYEFWFLVGSQYLYGLETLKKVEQQASKIVDSLNDDPIFPSKIVLKPVLKSSSEITEIFEKANADPKCAGVIVWMHTFSPSKMWIRGLSINKKPLLHLHTQYNREIPWDTIDMDYMNLNQSAHGDREHGFIHARMRLPRKVVVGHWEEKEVREKIAKWMRVACAIQDGRMGQIVRFGDNMREVASTEGDKVEAQIKLGWSINTWGVGELAERVKAVPEREVEELLKEYREKYIMPEDEYSLKAIREQAKIEIALREFLKEKNAVGFTTTFEDLHDLPQLPGLAVQRLMEEGYGFGAEGDWKAAGLVRAIKVMGTSLPGGTSFMEDYTYHLTPGNELVLGAHMLEVCPTIAKEKPRIEVHPLSIGGKADPARLVFDGQEGPAVNASIVDMGNRFRLVVNKVLSVPIERKMPKLPTARVLWKPLPDFKRATTAWILAGGSHHTAFSTAIDVEYLIDWAEALEIEYVVIDENLDLEDFKKELRWNELYWGLLKR
MGSDKIHHHHHHMIHLSPNDLPVGAPLPWSLLDGDGNLVLGSGNVIPDTRDVALVFRHGELCRLEADSGGDPQDDPLPRGPLGLQVGTLLHVKQPGDNSRAAASRLIGFVEQGLFMTWPQLGGRDLPVQAGDTLLLRGFSGRVIHSFTSTITAVCRSPFRYLVLSAPSQLDQMPVRKAARVPTRMAAYMTQSQESFQEADQDAFSAEMANGAARLVMVSDLSTGGAQIHAAGPAPVIGSRVQLRFRLRTASLDSEIVADAWVRAVTSDTADAEFPSFGISFDVLGEREMTLLQCFIYEQLLTSSGLGVHR
MGSDKIHHHHHHMIHTLQAQSNEITIPFAELDLLSHLTSEFEPKLFQQKIERLHQLDPGHPLPGIAKAYAFFHEQNFSAARRQLEQARSETGDHVRAHLLLGLMSEVENFQHEAERHFLDALSLFPEEPSVHRHLAVHYHEREFFGEAASHALQYLKKIGPGGEGTLMTIDMMQSMPGHDEHVLESLYSLLFEIPEHHHDMVFHSIAANNAEMRYELFHQALDGEPDEATVFRLDSMLSLMVEHSMWAAVYDQTKDRMCRTVFDTLCRDLTYRHAGIRSIPLYLTIRSRYFMRCLLHRS
MGSDKIHHHHHHMIILVGGEKGGSGKSCLAQNIAVFLTNEVQASVIMVDCDPQRTTSDWIQARNNNPKLPAINCVQLYGKIRNDLLSLEQHYDYVVVDCGGQDNLALRATMSVASYVLMPLRPKRRDLKTVSHMDDIVSTCLMINPKMKASFVITQCPSLPNQASRITEAKDVCRTYDINVLDAVNYCRNIYDDSEESGLSVFELEPQGKAADEMRSIACELLDITDAKQLIEQRNTASNVTPMRGNYGTSRSQEKRFVM
